Measured values as given in IntAct's records for PubMed 19017275.

B1: Phosphothreonine lyase OspF (Shigella flexneri), Q8VSP9 (parent)
chain: MPIKKPCLKLNLDSLNVVRSEIPQMLSANERLKNNFNILYNQIRQYPAYYFKVASNVPTYSDICQSFSVMYQGFQIVNHSGDVFIHACRENPQSKGDFVGDKFHISIAREQVPLAFQILSGLLFSEDSPIDKWKITDMNRVSQQSRVGIGAQFTLYVKSDQECSQYSALLLHKIRQFIMCLESNLLRSKIAPGEYPASDVRPEDWKYVSYRNELRSDRDGSERQEQMLREEPFYRLMIE
partner: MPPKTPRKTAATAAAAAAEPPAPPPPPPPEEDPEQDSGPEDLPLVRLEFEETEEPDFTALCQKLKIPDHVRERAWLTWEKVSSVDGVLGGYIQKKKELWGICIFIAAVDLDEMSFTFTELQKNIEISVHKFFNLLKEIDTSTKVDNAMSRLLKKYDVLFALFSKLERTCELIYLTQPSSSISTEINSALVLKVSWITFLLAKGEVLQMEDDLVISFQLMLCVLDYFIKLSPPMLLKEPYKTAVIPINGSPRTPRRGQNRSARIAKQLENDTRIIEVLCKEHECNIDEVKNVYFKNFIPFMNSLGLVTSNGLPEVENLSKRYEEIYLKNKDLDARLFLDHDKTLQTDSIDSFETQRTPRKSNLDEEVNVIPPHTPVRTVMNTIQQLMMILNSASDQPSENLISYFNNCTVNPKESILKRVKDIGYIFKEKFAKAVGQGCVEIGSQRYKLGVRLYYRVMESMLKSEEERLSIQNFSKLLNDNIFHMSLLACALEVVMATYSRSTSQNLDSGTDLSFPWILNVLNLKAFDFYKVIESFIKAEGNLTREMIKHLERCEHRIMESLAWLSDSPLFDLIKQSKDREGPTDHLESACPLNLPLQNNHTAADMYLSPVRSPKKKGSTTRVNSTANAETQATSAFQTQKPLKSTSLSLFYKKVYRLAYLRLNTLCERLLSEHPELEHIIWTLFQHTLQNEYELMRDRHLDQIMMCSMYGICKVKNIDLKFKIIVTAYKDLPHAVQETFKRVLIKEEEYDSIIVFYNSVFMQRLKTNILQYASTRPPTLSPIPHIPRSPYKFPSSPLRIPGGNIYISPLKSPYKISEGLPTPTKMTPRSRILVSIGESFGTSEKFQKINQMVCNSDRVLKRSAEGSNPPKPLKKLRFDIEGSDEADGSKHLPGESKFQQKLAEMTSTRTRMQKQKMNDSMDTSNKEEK

Variants of: B1
Details: with rb_human RB1, P06400

Row | Variant | effect of a mutation on the interaction
1 | I178R;C180G;E182A | decreasing interaction strength
